According to patent publication US11891445 (ABL BIO, dated 2024):

Experiments:
[1] = target: T1, human B7-H3 expressed on a cell surface (human cancer cell lines) (human, UniProt Q5ZPR3 29-534); assay: flow cytometry, SKOV-3 cells, antibody 10 ug/ml
T1 construct: whole, on cells; also called cell surface expression B7-H3 antigen
T1 sequence (looked up): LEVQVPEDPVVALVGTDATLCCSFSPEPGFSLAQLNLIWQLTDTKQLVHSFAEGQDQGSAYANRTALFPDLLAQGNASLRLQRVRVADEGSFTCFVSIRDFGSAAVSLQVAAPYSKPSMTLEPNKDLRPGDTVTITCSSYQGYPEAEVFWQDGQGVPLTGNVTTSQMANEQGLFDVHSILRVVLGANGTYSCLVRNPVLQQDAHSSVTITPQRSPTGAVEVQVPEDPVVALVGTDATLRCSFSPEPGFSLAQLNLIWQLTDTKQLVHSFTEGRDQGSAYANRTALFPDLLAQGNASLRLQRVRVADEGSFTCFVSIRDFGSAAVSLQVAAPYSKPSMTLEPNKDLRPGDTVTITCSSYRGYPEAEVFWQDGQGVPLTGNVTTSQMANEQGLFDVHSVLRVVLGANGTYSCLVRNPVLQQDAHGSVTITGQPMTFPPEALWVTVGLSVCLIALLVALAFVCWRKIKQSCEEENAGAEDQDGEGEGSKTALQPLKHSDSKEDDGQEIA
Text: (§1) Using various kinds of cancer cells A2780 (human ovarian cancer, ECACC, 93112519), SKOV-3 (human ovarian adenocarcinoma, ATCC® HTB-77™) OVCAR-3 (human ovarian adenocarcinoma, ATCC® HTB-161™), HCT116 (colon cancer cell, ThermoFIshcer Sci), HT29 (olorectal adenocarcinoma, ATCC® HTB-38™), DLD-1 (colorectal adenocarcinoma cell lines, ATCC® CCL-221™), Calu-6 (Non-small-cell lung carcinoma, ATCC® HTB-56™), HCC1954 (TNM stage IIA, grade 3, ductal carcinoma, ATCC® CRL-2338™), HCC1187 (TNM stage IIA, ATCC® CLC-2322™), renal cancer cell line 786-0 (renal cell adenocarcinoma, ATCC® CRL-1932™), A498 (kidney carcinoma, ATCC® HTB-44™), Panc-1 (pancreas epithelioid carcinoma, TCC CRL-1469™), NCI-N87 (gastric carcinoma, TCC CRL-5822™), HeLa (cervix adenocarcinoma, ATCC® CCL-2™), JeKo-1 (Lymphoma, ATCC® CRL-3006™) and FACSCalibur (BD Biosciences) device, the degree of binding of anti-B7-H3 antibody to B7-H3 was measured as follows.
(§2) After dissociating each cell line and washing it with PBS buffer, the number of cells was counted and adjusted to 2×10^5 cells/200 µl PBS, and then was treated with 10 µg/ml of B7-H3 monoclonal antibodies prepared in Example 2. Reaction was allowed at 4° C. for 1 hr. […] After the reaction, cells were washed in PBS and analyzed using the FACSCalibur device. […]

[2] = target: T1, human B7-H3 expressed on a cell surface …; assay: flow cytometry, NCI-N87 cells, antibody 10 ug/ml
Text: as §1, §2

[3] = target: T1, human B7-H3 expressed on a cell surface …; assay: flow cytometry, HCC1187 cells, antibody 10 ug/ml
Text: as §1, §2

[4] = target: T1, human B7-H3 expressed on a cell surface …; assay: flow cytometry, HCC1954 cells, antibody 10 ug/ml
Text: as §1, §2

[5] = target: T1, human B7-H3 expressed on a cell surface …; assay: flow cytometry, 786-0 cells, antibody 10 ug/ml
Text: as §1, §2

[6] = target: T1, human B7-H3 expressed on a cell surface …; assay: flow cytometry, HT29 cells, antibody 10 ug/ml
Text: as §1, §2

[7] = target: T1, human B7-H3 expressed on a cell surface …; assay: flow cytometry, JeKo-1 cells, antibody 10 ug/ml
Text: as §1, §2

[8] = target: T1, human B7-H3 expressed on a cell surface …; assay: flow cytometry, MDA-MB-468 cells, antibody 10 ug/ml
[9] = target: T1, human B7-H3 expressed on a cell surface …; assay: flow cytometry, DLD-1 cells, antibody 10 ug/ml
Text: as §1, §2

[10] = target: T1, human B7-H3 expressed on a cell surface …; assay: flow cytometry, MCF-7 cells, antibody 10 ug/ml
[11] = target: T1, human B7-H3 expressed on a cell surface …; assay: flow cytometry, A-498 cells, antibody 10 ug/ml
Text: as §1, §2

[12] = target: T1, human B7-H3 expressed on a cell surface …; assay: flow cytometry, HCT116 cells, antibody 10 ug/ml
Text: as §1, §2

[13] = target: T1, human B7-H3 expressed on a cell surface …; assay: flow cytometry, Hela cells, antibody 10 ug/ml
Text: as §1, §2

[14] = target: T1, human B7-H3 expressed on a cell surface …; assay: flow cytometry, OVCAR-3 cells, antibody 10 ug/ml
Text: as §1, §2

[15] = target: T1, human B7-H3 expressed on a cell surface …; assay: flow cytometry, MDA-MB-231 cells, antibody 10 ug/ml
[16] = target: T1, human B7-H3 expressed on a cell surface …; assay: flow cytometry, Calu-6 cells, antibody 10 ug/ml
Text: as §1, §2

[17] = target: T1, human B7-H3 expressed on a cell surface …; assay: flow cytometry, A2780 cells, antibody 10 ug/ml
Text: as §1, §2

[18] = target: T1, human B7-H3 expressed on a cell surface …; assay: flow cytometry, Panc-1 cells, antibody 10 ug/ml
Text: as §1, §2

MFI Ratio [1]: 11.9 ratio | MFI Ratio [2]: 12.8 ratio | MFI Ratio [3]: 14.9 ratio | MFI Ratio [4]: 14 ratio | MFI Ratio [5]: 20 ratio | MFI Ratio [6]: 8.9 ratio | MFI Ratio [7]: 2.9 ratio | MFI Ratio [8]: 8.6 ratio | MFI Ratio [9]: 10.7 ratio | MFI Ratio [10]: 78 ratio | MFI Ratio [11]: 24 ratio | MFI Ratio [12]: 5.9 ratio | MFI Ratio [13]: 23.5 ratio | MFI Ratio [14]: 13.7 ratio | MFI Ratio [15]: 5.4 ratio | MFI Ratio [16]: 23.2 ratio | MFI Ratio [17]: 13.1 ratio | MFI Ratio [18]: 9 ratio
B1: 84D (comparison group antibody, Enoblituzumab) (antibody, V domains shown)
VH: EVQLVESGGGLVQPGGSLRLSCAASGFTFSSFGMHWVRQAPGKGLEWVAYISSDSSAIYYADTVKGRFTISRDNAKNSLYLQMNSLRDEDTAVYYCGRGRENIYYGSRLDYWGQGTTVTVSS
VL: DIQLTQSPSFLSASVGDRVTITCKASQNVDTNVAWYQQKPGKAPKALIYSASYRYSGVPSRFSGSGSGTDFTLTISSLQPEDFATYYCQQYNNYPFTFGQGTKLEIK
